Assay results: the supplement of paper PMC7877785
± gives the uncertainty stated by the source.

Test: self-splicing fitness, log relative to wild type (ln ratio); higher = more splicing; Tetrahymena group I intron in knt gene, E. coli kanamycin selection, DiMSum; sequences stand for … in CUCUCU…GGAGGGAAAAGUUAUCAGGCAUGCACCUGGUAGCUAGUCUUUAAACCAAUAGAUUGCAUCGGUUUAAAAGGCAAGACCGUCAAAUUGCGGGAAAGGGGUCAACAGCCGUUCAGUACCAAGUCUCAGGGGAAACUUUGAGAUGGCCUUGCAAAGGGUAUGGUAAUAAGCUGACGGACAUGGUCCUAACCACGCAGCCAAGUCCUAAGUCAACAGAUCUUCUGUUGAUAUGGAUGCAGUUCACAGACUAAAUGUCGGUCGGGGAAGAUGUAUUCUUCUCAUAAGAUAUAGUCGGACCUCUCCUUAAUGGGAGCUAGCGGAUGAAGUGAUGCAACACUGGAGCCGCUGGGAACUAAUUUGUAUGCGAAAGUAUAUUGAUUAGUUUUGGAGUACUCGUGGUCG
How it was run: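 Colonies from six replicate transformations of E. coli BL21(DE3) were pooled and amplicon-sequenced on an Illumina HiSeq 2500. The library placed an intron with all eight P1ex-region nucleotides randomised inside the knt kanamycin-resistance gene on pET-22b(+), and cells grew overnight at 37°C or 30°C on LB agar with or without 25 μg/mL kanamycin (plus 100 μg/mL carbenicillin, 50 μM IPTG, 0.2% rhamnose). Fitness is the DiMSum error-weighted combination of wild-type-normalised replicate fold changes, kanamycin versus none.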

| Sequence | self-splicing fitness (ln) (30 °C) | self-splicing fitness (ln) (37 °C) |
| --- | --- | --- |
| GAAUAGCAAUAUUACGACCC | 0.178 ± 0.39 |  |
| GGUAAGCAAUAUUACGUGGG | -4.06 ± 0.3 | -2.36 ± 0.25 |
| AUUCAGCAAUAUUACGCUGG | -3.36 ± 0.17 | -2.98 ± 0.26 |
| ACACAGCAAUAUUACGGAUU | -2.18 ± 0.096 | -1.45 ± 0.12 |
| UUAAAGCAAUAUUACGAAGA | -1.19 ± 0.12 | -0.63 ± 0.17 |
| CCUGAGCAAUAUUACGGCGC | -4.1 ± 0.28 |  |
| UUAAAGCAAUAUUACGUCUA | 0.0872 ± 0.095 | 0.626 ± 0.11 |
| GAAGAGCAAUAUUACGAUUA | -2.33 ± 0.23 | -1.85 ± 0.17 |
| UUCUAGCAAUAUUACGGCGA | -0.698 ± 0.14 | 0.493 ± 0.18 |
| GAACAGCAAUAUUACGCCCC | -1.22 ± 0.25 | -0.835 ± 0.47 |
| GAGCAGCAAUAUUACGUGAU | -2.21 ± 0.082 | -0.968 ± 0.084 |
| CUCCAGCAAUAUUACGCACA | -1.38 ± 0.15 | -2.29 ± 0.27 |
| GUAUAGCAAUAUUACGUACU | -3.8 ± 0.39 | -2.05 ± 0.2 |
| UUUGAGCAAUAUUACGAUAU |  | -0.926 ± 0.24 |
| GUAUAGCAAUAUUACGCCUA | -1.64 ± 0.27 | -0.116 ± 0.22 |
| UUCCAGCAAUAUUACGUACA | -1.11 ± 0.1 | -0.862 ± 0.12 |
| UUCUAGCAAUAUUACGCAAU | -2.27 ± 0.22 | -2.21 ± 0.32 |
| AGGCAGCAAUAUUACGAUCG | -0.369 ± 0.077 | 0.135 ± 0.093 |
| GUCAAGCAAUAUUACGCGUU | -2.07 ± 0.076 | -0.761 ± 0.097 |
| CAGAAGCAAUAUUACGUAAG | -0.12 ± 0.057 | 0.772 ± 0.074 |
| UACUAGCAAUAUUACGAUAU | -3.18 ± 0.17 | -2.36 ± 0.17 |
| CGGCAGCAAUAUUACGCAUC | -3.25 ± 0.26 | -2.39 ± 0.41 |
| AUCCAGCAAUAUUACGUUGA | -1.6 ± 0.077 | -0.866 ± 0.087 |
| UCAGAGCAAUAUUACGUUUU | -3.84 ± 0.26 | -3.13 ± 0.26 |
| UUACAGCAAUAUUACGUGUG | -1.72 ± 0.063 | 0.0664 ± 0.077 |

| Sequence | self-splicing fitness (ln) (30 °C) | self-splicing fitness (ln) (37 °C) |
| --- | --- | --- |
| GCCUAGCAAUAUUACGAGUA | -1.7 ± 0.093 | -1.88 ± 0.085 |
| AGGGAGCAAUAUUACGGCGG | -2.87 ± 0.21 | -2.73 ± 0.3 |
| CUGAAGCAAUAUUACGUCAU | -1.03 ± 0.093 | -0.736 ± 0.12 |
| CACUAGCAAUAUUACGCGCA | -2.52 ± 0.16 | -1.85 ± 0.2 |
| CCGAAGCAAUAUUACGGUCG | -0.661 ± 0.11 | -0.369 ± 0.14 |
| CUCAAGCAAUAUUACGAUAG | -2 ± 0.1 | -0.283 ± 0.1 |
| GAUCAGCAAUAUUACGGAGU | -1.16 ± 0.077 | -0.717 ± 0.11 |
| UUUGAGCAAUAUUACGCGCA |  | -1.65 ± 0.48 |
| GCGUAGCAAUAUUACGGUUU | -1.03 ± 0.1 | -0.436 ± 0.13 |
| GUUGAGCAAUAUUACGCGAG | -1.35 ± 0.18 | -0.457 ± 0.17 |
| GUUAAGCAAUAUUACGAAUC | -1.8 ± 0.29 | -0.464 ± 0.17 |
| AACCAGCAAUAUUACGAUUA | -0.368 ± 0.056 | -0.164 ± 0.067 |
| GAAGAGCAAUAUUACGAGGC |  | -1.8 ± 0.41 |
| AUUUAGCAAUAUUACGUCAG | -3.7 ± 0.28 | -0.451 ± 0.2 |
| UGUAAGCAAUAUUACGGAUU | -2.59 ± 0.12 | -1.09 ± 0.12 |
| AAAUAGCAAUAUUACGUCCC | -0.4 ± 0.21 | -1.33 ± 0.28 |
| AAAAAGCAAUAUUACGCGAA | -2.07 ± 0.12 | -1.19 ± 0.16 |
| CUAAAGCAAUAUUACGGAAU | -3.72 ± 0.24 | -2.14 ± 0.22 |
| UCCGAGCAAUAUUACGCGCC | -2.88 ± 0.4 |  |
| AUCGAGCAAUAUUACGGCAA | -2.19 ± 0.15 | -2.06 ± 0.18 |
| AAGUAGCAAUAUUACGUCUG | -0.515 ± 0.086 | 0.168 ± 0.11 |
| CGUAAGCAAUAUUACGUGUG | -1.29 ± 0.063 | -0.745 ± 0.078 |
| UCUAAGCAAUAUUACGCUAG | -2.73 ± 0.16 | -2.89 ± 0.26 |
| GUUAAGCAAUAUUACGUACU | -0.559 ± 0.15 | -0.935 ± 0.14 |
| GCUAAGCAAUAUUACGUACA | -1.38 ± 0.1 | -0.974 ± 0.13 |

| Sequence | self-splicing fitness (ln) (30 °C) | self-splicing fitness (ln) (37 °C) |
| --- | --- | --- |
| GGGUAGCAAUAUUACGGUUU | -0.176 ± 0.068 | 0.138 ± 0.099 |
| CCGCAGCAAUAUUACGACGG | -2.83 ± 0.11 | -2.64 ± 0.19 |
| AAUAAGCAAUAUUACGCAAC | -2.79 ± 0.3 | -0.975 ± 0.2 |
| AACUAGCAAUAUUACGUCCU | -0.111 ± 0.092 | 1.04 ± 0.12 |
| UUCAAGCAAUAUUACGUCCG | -1.33 ± 0.095 | -0.121 ± 0.14 |
| UGUUAGCAAUAUUACGUGGA | -1.1 ± 0.22 | -1.62 ± 0.15 |
| UGCCAGCAAUAUUACGGAAU | -2.74 ± 0.15 | -1.95 ± 0.11 |
| CGCGAGCAAUAUUACGUAAG | -1.78 ± 0.096 | -1.73 ± 0.12 |
| UCAUAGCAAUAUUACGUUUC | -3.79 ± 0.43 | -1.72 ± 0.23 |
| CAUAAGCAAUAUUACGAACA | -3.64 ± 0.4 | -2.06 ± 0.38 |
| CGAUAGCAAUAUUACGCGCG | -2.92 ± 0.15 | -1.59 ± 0.14 |
| CGCAAGCAAUAUUACGGUAC | -4.99 ± 0.45 | -3.6 ± 0.16 |
| GGUGAGCAAUAUUACGGCUG | -1.06 ± 0.15 | -0.543 ± 0.21 |
| UAAGAGCAAUAUUACGGUUC | -2.19 ± 0.21 | -2.14 ± 0.46 |
| GUAUAGCAAUAUUACGUGCC | -3.23 ± 0.34 | -2.54 ± 0.31 |
| CUGCAGCAAUAUUACGUACC | -3.22 ± 0.19 | -2.68 ± 0.44 |
| CCCGAGCAAUAUUACGAAGU | -3.58 ± 0.18 | -2.75 ± 0.24 |
| GUUUAGCAAUAUUACGGGCU | -3.45 ± 0.34 | -0.606 ± 0.2 |
| GUGAAGCAAUAUUACGCAGU | -2.6 ± 0.22 | -1.02 ± 0.19 |
| GUGCAGCAAUAUUACGACCG | -2.18 ± 0.2 | -1.5 ± 0.27 |
| UUGGAGCAAUAUUACGAGUA |  | -2.45 ± 0.48 |
| ACCGAGCAAUAUUACGGUCG | -3.22 ± 0.23 | -1.68 ± 0.15 |
| GAUCAGCAAUAUUACGCUCG | 0.0547 ± 0.089 | -0.0564 ± 0.12 |
| GCUCAGCAAUAUUACGGGAU | -1.16 ± 0.097 | -0.195 ± 0.11 |
| UUACAGCAAUAUUACGCUCG | 0.107 ± 0.086 | 0.283 ± 0.11 |

| Sequence | self-splicing fitness (ln) (30 °C) | self-splicing fitness (ln) (37 °C) |
| --- | --- | --- |
| GUGAAGCAAUAUUACGCUUC | -4.23 ± 0.32 | -2.41 ± 0.3 |
| CAGCAGCAAUAUUACGACUU | -0.431 ± 0.068 | 0.69 ± 0.083 |
| CAGUAGCAAUAUUACGUGGG | -3.85 ± 0.29 | -1.92 ± 0.21 |
| UAACAGCAAUAUUACGUCAG | -1.53 ± 0.073 | -0.0779 ± 0.085 |
| AUAGAGCAAUAUUACGACCU | -1.41 ± 0.23 | -0.988 ± 0.21 |
| GUAAAGCAAUAUUACGCACG | -0.557 ± 0.067 | -0.242 ± 0.093 |
| GGACAGCAAUAUUACGUUAU | -0.282 ± 0.046 | 0.102 ± 0.066 |
| AAUUAGCAAUAUUACGCCGA | -1.34 ± 0.26 | -0.981 ± 0.21 |
| CGCGAGCAAUAUUACGGAGA | -2.25 ± 0.23 | -2.3 ± 0.33 |
| CUUCAGCAAUAUUACGUCAU | -3.34 ± 0.21 | -3.76 ± 0.34 |
| GUCGAGCAAUAUUACGAGUC | -3.73 ± 0.25 | -2.2 ± 0.18 |
| ACACAGCAAUAUUACGGAAC | -4.07 ± 0.17 | -2.49 ± 0.14 |
| CGUUAGCAAUAUUACGAGCA | -0.917 ± 0.09 | -0.809 ± 0.089 |
| UUCCAGCAAUAUUACGUCAG | -1.75 ± 0.077 | -1.19 ± 0.097 |
| GAUGAGCAAUAUUACGUGGG | -3.45 ± 0.21 | -3.04 ± 0.27 |
| AUGGAGCAAUAUUACGUGCC | -2.59 ± 0.25 | -2.25 ± 0.45 |
| AAUGAGCAAUAUUACGAUGU | -2.94 ± 0.15 | -1.97 ± 0.17 |
| CAGUAGCAAUAUUACGGUGG | -0.646 ± 0.06 | -0.131 ± 0.09 |
| AGCCAGCAAUAUUACGGGAG | -2.56 ± 0.11 | -2.17 ± 0.14 |
| ACCCAGCAAUAUUACGCUCG | -3.65 ± 0.33 | -2.23 ± 0.26 |
| UGGGAGCAAUAUUACGGACG | -1.52 ± 0.14 | -0.236 ± 0.15 |
| UUAGAGCAAUAUUACGCAAG | -1.18 ± 0.14 | -0.488 ± 0.22 |
